# In article PMC11374677 (Nature, 2024):
# B1: SARS-CoV-2 non-structural protein 4 (nsp4), wild type (natural protein)
# chain: KIVNNWLKQLIKVTLVFLFVAAIFYLITPVHVMSKHTDFSSEIIGYKAIDGGVTRDIASTDTCFANKHADFDTWFSQRGGSYTNDKACPLIAAVITREVGFVVPGLPGTILRTTNGDFLHFLPRVFSAVGNICYTPSKLIEYTDFATSACVLAAECTIFKDASGKPVPYCYDTNVLEGSVAYESLRPDTRYVLMDGSIIQFPNTYLEGSVRVVTTFDSEYCRHGTCERSEAGVCVSTSGRWVLNNDYYRSLPGVFCGVDAVNLLTNMFTPLIQPIGALDISASIVAGGIVAIVVTCLAYYFMRFRRAFGEYSHVVAFNTLLFLMSFTVLCLTPVYSFLPGVYSVIYLYLTFYLTNDVSFLAHIQWMVMFTPLVPFWITIAYIICISTKHFYWFFSNYLKRRVVFNGVSFSTFEEAALCTFLLNKEMYLKLRSDVLLPLTQYNRYLALYNKYKYFSGAMDTTSYREAACCHLAKALNDFSNSGSDVLYQPPQTSITSAVLQ
# Biological target: SARS-CoV-2 non-structural protein 3 (nsp3), TwinStrep-EGFP tagged, wild type (SARS-CoV-2 (Wuhan-Hu-1), UniProt P0DTD1)
# Experiment: […]
binder,measurement,value
B1,stoichiometry N,1 ratio nsp4:nsp3 (12:12 in the complex)
